Data reported in patent publication EP4431526A1 (Emfret Analytics GmbH & Co. KG, dated 2024).

T1: human GPVI-Fc fusion protein (human, UniProt Q9HCN6 21-267, limits assumed)
T1 construct: also called human GPVI protein antigen
T1 sequence (looked up): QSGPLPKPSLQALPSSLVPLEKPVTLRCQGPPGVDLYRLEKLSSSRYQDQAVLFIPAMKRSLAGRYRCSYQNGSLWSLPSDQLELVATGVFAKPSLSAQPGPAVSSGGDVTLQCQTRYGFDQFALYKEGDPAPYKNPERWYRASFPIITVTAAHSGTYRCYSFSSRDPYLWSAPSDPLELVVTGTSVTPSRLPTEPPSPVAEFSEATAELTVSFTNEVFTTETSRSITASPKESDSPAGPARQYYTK


biological target: T1, human GPVI-Fc fusion protein; assay: BLI (Octet), GPVI-Fc on biosensor, 1:1 fit

Row | Binder | Kd | koff | kon
1 | HC5 LC1 humanized Fab (Fab, V domains shown, also called VH5:VL1) VH: QVQLQESGPGLVKPSETLSLTCTVSGFSLTSYGVTWIRQPPGKGLEWIGVIWGDGSTNYHSGLRSRVTISVDTSKNQFSLKLSSVTAADTAVYYCAKPIYYDFDDDAMDYWGQGTSVTVSS VL: EIVLTQSPSSLSASVGDRVTITCKASQNVGTYVAWFQQKPGKAPKSLIYSASYRCSGVPSKFSGSGSGTDFTLTISSLQPEDFATYYCHQYNNYPLTFGQGTKLEIKR | 333 pM | 0.000261 s⁻¹ | 782000 M⁻¹ s⁻¹
2 | HC3 LC1 humanized Fab (Fab, V domains shown, also called VH3:VL1) VH: QVQLVESGGGVVQPGRSLRLSCVASGFSLTSYGVTWVRQAPGKGLEWVAVIWGDGSTNYHSGLRSRFTISRDNSKNTMFLQMNSLRADDTAVYYCAKPIYYDFDDDAMDYWGQGTLVTVSS VL: EIVLTQSPSSLSASVGDRVTITCKASQNVGTYVAWFQQKPGKAPKSLIYSASYRCSGVPSKFSGSGSGTDFTLTISSLQPEDFATYYCHQYNNYPLTFGQGTKLEIKR | 353 pM | 0.000587 s⁻¹ | 1.66e+06 M⁻¹ s⁻¹
3 | HC1 LC3 humanized Fab (Fab, V domains shown, also called VH1:VL3) VH: QVQLQESGPGLVKPSETLSLTCTASGFSLTSYGVTWIRQPPGKGLEWIGVIWGDGSTNYHSGLRSRVTISVDTSKSQFSLKLSSVTAADTAVYYCAKPIYYDFDDDAMDYWGQGTLVTVSS VL: DIQLTQSPSTLSASVGDRVTITCKASQNVGTYVAWYQQKPGKAPKLLIYSASYRCSGVPSRFSGSGSGTEFTLTISSLQPDDFTTYYCHQYNNYPLTFGQGTKVEIKR | 284 pM | 0.000221 s⁻¹ | 777000 M⁻¹ s⁻¹
4 | HC4 LC2 humanized Fab (Fab, V domains shown, also called VH4:VL2) VH: QVQLVESGGGVVQPGRSLRLSCAASGFSLTSYGVTWVRQSPGKGLEWVAVIWGDGSTNYHSGLRSRLTISRDNSKNTLYLEMNSLRTEDTATYYCAKPIYYDFDDDAMDYWGQGTKVTVSS VL: DIQMTQSPSSLSASVGDRVTITCKASQNVGTYVAWFQQRPGKAPKSLIYSASYRCSGVPSKFSGSGSGTDFTLTINSLQPEDFATYYCHQYNNYPLTFGQGTKVEIKR | 395 pM | 0.000508 s⁻¹ | 1.29e+06 M⁻¹ s⁻¹
5 | HC2 LC3 humanized Fab (Fab, V domains shown, also called VH2:VL3) VH: EVQLVESGPGLVKPSETLSLTCTVSGFSLTSYGVTWIRQPPGKGLEWIGVIWGDGSTNYHSGLRSRVTISVDTSKNQFSLKLSSVTAADTAVYYCAKPIYYDFDDDAMDYWGQGTLVTVSS VL: DIQLTQSPSTLSASVGDRVTITCKASQNVGTYVAWYQQKPGKAPKLLIYSASYRCSGVPSRFSGSGSGTEFTLTISSLQPDDFTTYYCHQYNNYPLTFGQGTKVEIKR | 250 pM | 0.000144 s⁻¹ | 576000 M⁻¹ s⁻¹
6 | HC5 LC4 humanized Fab (Fab, V domains shown, also called VH5:VL4) VH: QVQLQESGPGLVKPSETLSLTCTVSGFSLTSYGVTWIRQPPGKGLEWIGVIWGDGSTNYHSGLRSRVTISVDTSKNQFSLKLSSVTAADTAVYYCAKPIYYDFDDDAMDYWGQGTSVTVSS VL: DIVMTQSPATLSLSPGDRATLSCKASQNVGTYVAWYQQKPGQAPRLLIYSASYRCSGIPARFSGSGSGTDFTLTISSLQSEDFAVYYCHQYNNYPLTFGGGTKVEIKR | 554 pM | 0.000319 s⁻¹ | 576000 M⁻¹ s⁻¹
7 | HC1 LC1 humanized Fab (Fab, V domains shown, Monovalent 50 kDa Fab from CHO; also called VH1:VL1) VH: QVQLQESGPGLVKPSETLSLTCTASGFSLTSYGVTWIRQPPGKGLEWIGVIWGDGSTNYHSGLRSRVTISVDTSKSQFSLKLSSVTAADTAVYYCAKPIYYDFDDDAMDYWGQGTLVTVSS VL: EIVLTQSPSSLSASVGDRVTITCKASQNVGTYVAWFQQKPGKAPKSLIYSASYRCSGVPSKFSGSGSGTDFTLTISSLQPEDFATYYCHQYNNYPLTFGQGTKLEIKR | 413 pM | 0.000332 s⁻¹ | 804000 M⁻¹ s⁻¹
8 | HC2 LC4 humanized Fab (Fab, V domains shown, also called VH2:VL4) VH: EVQLVESGPGLVKPSETLSLTCTVSGFSLTSYGVTWIRQPPGKGLEWIGVIWGDGSTNYHSGLRSRVTISVDTSKNQFSLKLSSVTAADTAVYYCAKPIYYDFDDDAMDYWGQGTLVTVSS VL: DIVMTQSPATLSLSPGDRATLSCKASQNVGTYVAWYQQKPGQAPRLLIYSASYRCSGIPARFSGSGSGTDFTLTISSLQSEDFAVYYCHQYNNYPLTFGGGTKVEIKR | 693 pM | 0.0011 s⁻¹ | 1.59e+06 M⁻¹ s⁻¹
9 | HC5 LC3 humanized Fab (Fab, V domains shown, also called VH5:VL3) VH: QVQLQESGPGLVKPSETLSLTCTVSGFSLTSYGVTWIRQPPGKGLEWIGVIWGDGSTNYHSGLRSRVTISVDTSKNQFSLKLSSVTAADTAVYYCAKPIYYDFDDDAMDYWGQGTSVTVSS VL: DIQLTQSPSTLSASVGDRVTITCKASQNVGTYVAWYQQKPGKAPKLLIYSASYRCSGVPSRFSGSGSGTEFTLTISSLQPDDFTTYYCHQYNNYPLTFGQGTKVEIKR | 637 pM | 0.000437 s⁻¹ | 686000 M⁻¹ s⁻¹
10 | HC5 LC2 humanized Fab (Fab, V domains shown, also called VH5:VL2) VH: QVQLQESGPGLVKPSETLSLTCTVSGFSLTSYGVTWIRQPPGKGLEWIGVIWGDGSTNYHSGLRSRVTISVDTSKNQFSLKLSSVTAADTAVYYCAKPIYYDFDDDAMDYWGQGTSVTVSS VL: DIQMTQSPSSLSASVGDRVTITCKASQNVGTYVAWFQQRPGKAPKSLIYSASYRCSGVPSKFSGSGSGTDFTLTINSLQPEDFATYYCHQYNNYPLTFGQGTKVEIKR | 367 pM | 0.00024 s⁻¹ | 655000 M⁻¹ s⁻¹
11 | HC4 LC1 humanized Fab (Fab, V domains shown, also called VH4:VL1) VH: QVQLVESGGGVVQPGRSLRLSCAASGFSLTSYGVTWVRQSPGKGLEWVAVIWGDGSTNYHSGLRSRLTISRDNSKNTLYLEMNSLRTEDTATYYCAKPIYYDFDDDAMDYWGQGTKVTVSS VL: EIVLTQSPSSLSASVGDRVTITCKASQNVGTYVAWFQQKPGKAPKSLIYSASYRCSGVPSKFSGSGSGTDFTLTISSLQPEDFATYYCHQYNNYPLTFGQGTKLEIKR | 425 pM | 0.000339 s⁻¹ | 797000 M⁻¹ s⁻¹
12 | HC2 LC2 humanized Fab (Fab, V domains shown, also called VH2:VL2; EMF602) VH: EVQLVESGPGLVKPSETLSLTCTVSGFSLTSYGVTWIRQPPGKGLEWIGVIWGDGSTNYHSGLRSRVTISVDTSKNQFSLKLSSVTAADTAVYYCAKPIYYDFDDDAMDYWGQGTLVTVSS VL: DIQMTQSPSSLSASVGDRVTITCKASQNVGTYVAWFQQRPGKAPKSLIYSASYRCSGVPSKFSGSGSGTDFTLTINSLQPEDFATYYCHQYNNYPLTFGQGTKVEIKR | 175 pM | 0.000162 s⁻¹ | 931000 M⁻¹ s⁻¹
13 | HC3 LC2 humanized Fab (Fab, V domains shown, also called VH3:VL2) VH: QVQLVESGGGVVQPGRSLRLSCVASGFSLTSYGVTWVRQAPGKGLEWVAVIWGDGSTNYHSGLRSRFTISRDNSKNTMFLQMNSLRADDTAVYYCAKPIYYDFDDDAMDYWGQGTLVTVSS VL: DIQMTQSPSSLSASVGDRVTITCKASQNVGTYVAWFQQRPGKAPKSLIYSASYRCSGVPSKFSGSGSGTDFTLTINSLQPEDFATYYCHQYNNYPLTFGQGTKVEIKR | 215 pM | 0.000362 s⁻¹ | 1.68e+06 M⁻¹ s⁻¹
14 | HC3 LC3 humanized Fab (Fab, V domains shown, also called VH3:VL3) VH: QVQLVESGGGVVQPGRSLRLSCVASGFSLTSYGVTWVRQAPGKGLEWVAVIWGDGSTNYHSGLRSRFTISRDNSKNTMFLQMNSLRADDTAVYYCAKPIYYDFDDDAMDYWGQGTLVTVSS VL: DIQLTQSPSTLSASVGDRVTITCKASQNVGTYVAWYQQKPGKAPKLLIYSASYRCSGVPSRFSGSGSGTEFTLTISSLQPDDFTTYYCHQYNNYPLTFGQGTKVEIKR | 299 pM | 0.000561 s⁻¹ | 1.87e+06 M⁻¹ s⁻¹
15 | HC1 LC4 humanized Fab (Fab, V domains shown, also called VH1:VL4) VH: QVQLQESGPGLVKPSETLSLTCTASGFSLTSYGVTWIRQPPGKGLEWIGVIWGDGSTNYHSGLRSRVTISVDTSKSQFSLKLSSVTAADTAVYYCAKPIYYDFDDDAMDYWGQGTLVTVSS VL: DIVMTQSPATLSLSPGDRATLSCKASQNVGTYVAWYQQKPGQAPRLLIYSASYRCSGIPARFSGSGSGTDFTLTISSLQSEDFAVYYCHQYNNYPLTFGGGTKVEIKR | 496 pM | 0.000333 s⁻¹ | 671000 M⁻¹ s⁻¹
16 | HC2 LC1 humanized Fab (Fab, V domains shown, also called VH2:VL1) VH: EVQLVESGPGLVKPSETLSLTCTVSGFSLTSYGVTWIRQPPGKGLEWIGVIWGDGSTNYHSGLRSRVTISVDTSKNQFSLKLSSVTAADTAVYYCAKPIYYDFDDDAMDYWGQGTLVTVSS VL: EIVLTQSPSSLSASVGDRVTITCKASQNVGTYVAWFQQKPGKAPKSLIYSASYRCSGVPSKFSGSGSGTDFTLTISSLQPEDFATYYCHQYNNYPLTFGQGTKLEIKR | 269 pM | 0.000189 s⁻¹ | 703000 M⁻¹ s⁻¹
17 | HC0 LC0 chimeric Fab fragment (Fab, V domains shown, Murine variable domains with human Ig constant domains, expressed in CHO; also called HC0 LCD; chimeric control antibody) VH: QVQLKESGPGLVQPSQSLSITCTVSGFSLTSYGVTWVRQPPGKGLEWLGVIWGDGSTNYHSGLRSRLSISRDDSKSQVFLKLNSLQTDDTATYYCAKPIYYDFDDDAMDYWGQGTSVTVSS VL: DIVMTQSQKFMSTSVGDRVSVTCKASQNVGTYVAWFQQKPGQSPKTLIYSASYRCSGVPDRFTGSGSGTDFTLTISNVQSDDLAEYFCHQYNNYPLTFGAGTKLELRR | 427 pM | 0.000212 s⁻¹ | 496000 M⁻¹ s⁻¹
18 | HC3 LC4 humanized Fab (Fab, V domains shown, also called VH3:VL4) VH: QVQLVESGGGVVQPGRSLRLSCVASGFSLTSYGVTWVRQAPGKGLEWVAVIWGDGSTNYHSGLRSRFTISRDNSKNTMFLQMNSLRADDTAVYYCAKPIYYDFDDDAMDYWGQGTLVTVSS VL: DIVMTQSPATLSLSPGDRATLSCKASQNVGTYVAWYQQKPGQAPRLLIYSASYRCSGIPARFSGSGSGTDFTLTISSLQSEDFAVYYCHQYNNYPLTFGGGTKVEIKR | 431 pM | 0.000618 s⁻¹ | 1.43e+06 M⁻¹ s⁻¹
19 | HC4 LC4 humanized Fab (Fab, V domains shown, also called VH4:VL4) VH: QVQLVESGGGVVQPGRSLRLSCAASGFSLTSYGVTWVRQSPGKGLEWVAVIWGDGSTNYHSGLRSRLTISRDNSKNTLYLEMNSLRTEDTATYYCAKPIYYDFDDDAMDYWGQGTKVTVSS VL: DIVMTQSPATLSLSPGDRATLSCKASQNVGTYVAWYQQKPGQAPRLLIYSASYRCSGIPARFSGSGSGTDFTLTISSLQSEDFAVYYCHQYNNYPLTFGGGTKVEIKR | 572 pM | 0.000412 s⁻¹ | 720000 M⁻¹ s⁻¹
